Source: paper PMC4577081 (2015)

Target: human CD47/his fusion protein (extracellular domain of human CD47 fused to His-tag) (human)
Assay: SPR; monomeric hCD47

Kd: 19.9 nM
B1: mouse anti-human CD47 monoclonal antibody 5F9 (antibody, V domains shown)
VH: QVQLQQPGAELVKPGASVMMSCKASGYTFTNYNMHWVKQTPGQGLEWIGTIYPGNDDTSYNQKFKDKATLTADKSSSAAYMQLSSLTSEDSAVYYCARGGYRAMDYWGQGTSVTVSS
VL: DVLMTQTPLSLPVSLGDQASISCRSSQSIVYSNGNTYLGWYLQKPGQSPKLLIYKVSNRFSGVPDRFSGSGSGTDFTLKISRVEAEDLGVYHCFQGSHVPYTFGGGTKVEIK
modifications: biotin-labeled in the competition ELISA (site not stated)
